In patent US20170101454A1 (Novo Nordisk, published 2017):
Starred links: 1 amine or outer side, 2 acyl side, 3 side chain; linkers in the order of their positions; H or OH if unused. Non-standard residues stand in square brackets, D forms with d. Groups on a side chain read outwards from the residue. No end group written: not given here. *: point of attachment. C18 diacid = O=C(O)CCCCCCCCCCCCCCCCC(=O)*; γGlu = O=C(O)[C@H](CCC(=O)[*:2])N[*:1]; AEEA = NCCOCCOCC(=O)O; Aib = CC(C)(N)C(=O)O

B1: N^ε28-[2-[2-[2-[[2-[2-[2-[[(4S)-4-carboxy-4-[[(4S)-4-carboxy-4-[[(4S)-4-carboxy-4-(17-carboxyheptadecanoylamino)butanoyl]amino]butanoyl]amino]butanoyl]amino]eth … (peptide)
peptide: H[Aib]QGTFTSDVSKYLESRRAQDFVQWLIK([AEEA-AEEA-γGlu-γGlu-γGlu-C18 diacid])T-NH2
modifications: N-terminus assumed
SMILES: CC[C@H](C)[C@H](NC(=O)[C@H](CC(C)C)NC(=O)[C@H](Cc1c[nH]c2ccccc12)NC(=O)[C@H](CCC(N)=O)NC(=O)[C@@H](NC(=O)[C@H](Cc1ccccc1)NC(=O)[C@H](CC(=O)O)NC(=O)[C@H](CCC(N)=O)NC(=O)[C@H](C)NC(=O)[C@H](CCCNC(=N)N)NC(=O)[C@H](CCCNC(=N)N)NC(=O)[C@H](CO)NC(=O)[C@H](CCC(=O)O)NC(=O)[C@H](CC(C)C)NC(=O)[C@H](Cc1ccc(O)cc1)NC(=O)[C@H](CCCCN)NC(=O)[C@H](CO)NC(=O)[C@@H](NC(=O)[C@H](CC(=O)O)NC(=O)[C@H](CO)NC(=O)[C@@H](NC(=O)[C@H](Cc1ccccc1)NC(=O)[C@@H](NC(=O)CNC(=O)[C@H](CCC(N)=O)NC(=O)C(C)(C)NC(=O)[C@@H](N)Cc1c[nH]cn1)[C@@H](C)O)[C@@H](C)O)C(C)C)C(C)C)C(=O)N[C@@H](CCCCNC(=O)COCCOCCNC(=O)COCCOCCNC(=O)CC[C@H](NC(=O)CC[C@H](NC(=O)CC[C@H](NC(=O)CCCCCCCCCCCCCCCCC(=O)O)C(=O)O)C(=O)O)C(=O)O)C(=O)N[C@H](C(N)=O)[C@@H](C)O
notes: also called Chem. 10; Chem 10
B2: N^ε28-[2-[2-[2-[[2-[2-[2-[[(4S)-4-carboxy-4-[[(4S)-4-carboxy-4-[[(4S)-4-carboxy-4-(17-carboxyheptadecanoylamino)butanoyl]amino]butanoyl]amino]butanoyl]amino]eth … (peptide)
peptide: H[Aib]QGTFTSDLSKYLESRRARDFVQWLIK([AEEA-AEEA-γGlu-γGlu-γGlu-C18 diacid])T-NH2
modifications: N-terminus assumed
SMILES: CC[C@H](C)[C@H](NC(=O)[C@H](CC(C)C)NC(=O)[C@H](Cc1c[nH]c2ccccc12)NC(=O)[C@H](CCC(N)=O)NC(=O)[C@@H](NC(=O)[C@H](Cc1ccccc1)NC(=O)[C@H](CC(=O)O)NC(=O)[C@H](CCCNC(=N)N)NC(=O)[C@H](C)NC(=O)[C@H](CCCNC(=N)N)NC(=O)[C@H](CCCNC(=N)N)NC(=O)[C@H](CO)NC(=O)[C@H](CCC(=O)O)NC(=O)[C@H](CC(C)C)NC(=O)[C@H](Cc1ccc(O)cc1)NC(=O)[C@H](CCCCN)NC(=O)[C@H](CO)NC(=O)[C@H](CC(C)C)NC(=O)[C@H](CC(=O)O)NC(=O)[C@H](CO)NC(=O)[C@@H](NC(=O)[C@H](Cc1ccccc1)NC(=O)[C@@H](NC(=O)CNC(=O)[C@H](CCC(N)=O)NC(=O)C(C)(C)NC(=O)[C@@H](N)Cc1c[nH]cn1)[C@@H](C)O)[C@@H](C)O)C(C)C)C(=O)N[C@@H](CCCCNC(=O)COCCOCCNC(=O)COCCOCCNC(=O)CC[C@H](NC(=O)CC[C@H](NC(=O)CC[C@H](NC(=O)CCCCCCCCCCCCCCCCC(=O)O)C(=O)O)C(=O)O)C(=O)O)C(=O)N[C@H](C(N)=O)[C@@H](C)O
notes: also called Chem. 3; Chem 3
B3: N^ε28-[2-[2-[2-[[2-[2-[2-[[(4S)-4-carboxy-4-[[(4S)-4-carboxy-4-[[(4S)-4-carboxy-4-(17-carboxyheptadecanoylamino)butanoyl]amino]butanoyl]amino]butanoyl]amino]eth … (peptide)
peptide: H[Aib]QGTFTSDLSKYLDARRAREFVQWLIK([AEEA-AEEA-γGlu-γGlu-γGlu-C18 diacid])T-NH2
modifications: N-terminus assumed
SMILES: CC[C@H](C)[C@H](NC(=O)[C@H](CC(C)C)NC(=O)[C@H](Cc1c[nH]c2ccccc12)NC(=O)[C@H](CCC(N)=O)NC(=O)[C@@H](NC(=O)[C@H](Cc1ccccc1)NC(=O)[C@H](CCC(=O)O)NC(=O)[C@H](CCCNC(=N)N)NC(=O)[C@H](C)NC(=O)[C@H](CCCNC(=N)N)NC(=O)[C@H](CCCNC(=N)N)NC(=O)[C@H](C)NC(=O)[C@H](CC(=O)O)NC(=O)[C@H](CC(C)C)NC(=O)[C@H](Cc1ccc(O)cc1)NC(=O)[C@H](CCCCN)NC(=O)[C@H](CO)NC(=O)[C@H](CC(C)C)NC(=O)[C@H](CC(=O)O)NC(=O)[C@H](CO)NC(=O)[C@@H](NC(=O)[C@H](Cc1ccccc1)NC(=O)[C@@H](NC(=O)CNC(=O)[C@H](CCC(N)=O)NC(=O)C(C)(C)NC(=O)[C@@H](N)Cc1c[nH]cn1)[C@@H](C)O)[C@@H](C)O)C(C)C)C(=O)N[C@@H](CCCCNC(=O)COCCOCCNC(=O)COCCOCCNC(=O)CC[C@H](NC(=O)CC[C@H](NC(=O)CC[C@H](NC(=O)CCCCCCCCCCCCCCCCC(=O)O)C(=O)O)C(=O)O)C(=O)O)C(=O)N[C@H](C(N)=O)[C@@H](C)O
notes: also called Chem. 6; Chem 6
B4: N^ε28-[2-[2-[2-[[2-[2-[2-[[(4S)-4-carboxy-4-[[(4S)-4-carboxy-4-[[(4S)-4-carboxy-4-(17-carboxyheptadecanoylamino)butanoyl]amino]butanoyl]amino]butanoyl]amino]eth … (peptide)
peptide: H[Aib]QGTFTSDLSKYLDARRAQDFVQWLIK([AEEA-AEEA-γGlu-γGlu-γGlu-C18 diacid])T-NH2
modifications: N-terminus assumed
SMILES: CC[C@H](C)[C@H](NC(=O)[C@H](CC(C)C)NC(=O)[C@H](Cc1c[nH]c2ccccc12)NC(=O)[C@H](CCC(N)=O)NC(=O)[C@@H](NC(=O)[C@H](Cc1ccccc1)NC(=O)[C@H](CC(=O)O)NC(=O)[C@H](CCC(N)=O)NC(=O)[C@H](C)NC(=O)[C@H](CCCNC(=N)N)NC(=O)[C@H](CCCNC(=N)N)NC(=O)[C@H](C)NC(=O)[C@H](CC(=O)O)NC(=O)[C@H](CC(C)C)NC(=O)[C@H](Cc1ccc(O)cc1)NC(=O)[C@H](CCCCN)NC(=O)[C@H](CO)NC(=O)[C@H](CC(C)C)NC(=O)[C@H](CC(=O)O)NC(=O)[C@H](CO)NC(=O)[C@@H](NC(=O)[C@H](Cc1ccccc1)NC(=O)[C@@H](NC(=O)CNC(=O)[C@H](CCC(N)=O)NC(=O)C(C)(C)NC(=O)[C@@H](N)Cc1c[nH]cn1)[C@@H](C)O)[C@@H](C)O)C(C)C)C(=O)N[C@@H](CCCCNC(=O)COCCOCCNC(=O)COCCOCCNC(=O)CC[C@H](NC(=O)CC[C@H](NC(=O)CC[C@H](NC(=O)CCCCCCCCCCCCCCCCC(=O)O)C(=O)O)C(=O)O)C(=O)O)C(=O)N[C@H](C(N)=O)[C@@H](C)O
notes: also called Chem. 7; Chem 7
B5: N^ε28-[2-[2-[2-[[2-[2-[2-[[(4S)-4-carboxy-4-[[(4S)-4-carboxy-4-[[(4S)-4-carboxy-4-(17-carboxyheptadecanoylamino)butanoyl]amino]butanoyl]amino]butanoyl]amino]eth … (peptide)
peptide: H[Aib]QGTFTSDLSKYLESRRAQDFVQWLIK([AEEA-AEEA-γGlu-γGlu-γGlu-C18 diacid])T-NH2
modifications: N-terminus assumed
SMILES: CC[C@H](C)[C@H](NC(=O)[C@H](CC(C)C)NC(=O)[C@H](Cc1c[nH]c2ccccc12)NC(=O)[C@H](CCC(N)=O)NC(=O)[C@@H](NC(=O)[C@H](Cc1ccccc1)NC(=O)[C@H](CC(=O)O)NC(=O)[C@H](CCC(N)=O)NC(=O)[C@H](C)NC(=O)[C@H](CCCNC(=N)N)NC(=O)[C@H](CCCNC(=N)N)NC(=O)[C@H](CO)NC(=O)[C@H](CCC(=O)O)NC(=O)[C@H](CC(C)C)NC(=O)[C@H](Cc1ccc(O)cc1)NC(=O)[C@H](CCCCN)NC(=O)[C@H](CO)NC(=O)[C@H](CC(C)C)NC(=O)[C@H](CC(=O)O)NC(=O)[C@H](CO)NC(=O)[C@@H](NC(=O)[C@H](Cc1ccccc1)NC(=O)[C@@H](NC(=O)CNC(=O)[C@H](CCC(N)=O)NC(=O)C(C)(C)NC(=O)[C@@H](N)Cc1c[nH]cn1)[C@@H](C)O)[C@@H](C)O)C(C)C)C(=O)N[C@@H](CCCCNC(=O)COCCOCCNC(=O)COCCOCCNC(=O)CC[C@H](NC(=O)CC[C@H](NC(=O)CC[C@H](NC(=O)CCCCCCCCCCCCCCCCC(=O)O)C(=O)O)C(=O)O)C(=O)O)C(=O)N[C@H](C(N)=O)[C@@H](C)O
notes: also called Chem. 8; Chem 8
B6: N^ε28-[2-[2-[2-[[2-[2-[2-[[(4S)-4-carboxy-4-[[(4S)-4-carboxy-4-[[(4S)-4-carboxy-4-(17-carboxyheptadecanoylamino)butanoyl]amino]butanoyl]amino]butanoyl]amino]eth … (peptide)
peptide: H[Aib]QGTFTSDLSKYLDLRRAQDFVQWLIK([AEEA-AEEA-γGlu-γGlu-γGlu-C18 diacid])T-NH2
modifications: N-terminus assumed
SMILES: CC[C@H](C)[C@H](NC(=O)[C@H](CC(C)C)NC(=O)[C@H](Cc1c[nH]c2ccccc12)NC(=O)[C@H](CCC(N)=O)NC(=O)[C@@H](NC(=O)[C@H](Cc1ccccc1)NC(=O)[C@H](CC(=O)O)NC(=O)[C@H](CCC(N)=O)NC(=O)[C@H](C)NC(=O)[C@H](CCCNC(=N)N)NC(=O)[C@H](CCCNC(=N)N)NC(=O)[C@H](CC(C)C)NC(=O)[C@H](CC(=O)O)NC(=O)[C@H](CC(C)C)NC(=O)[C@H](Cc1ccc(O)cc1)NC(=O)[C@H](CCCCN)NC(=O)[C@H](CO)NC(=O)[C@H](CC(C)C)NC(=O)[C@H](CC(=O)O)NC(=O)[C@H](CO)NC(=O)[C@@H](NC(=O)[C@H](Cc1ccccc1)NC(=O)[C@@H](NC(=O)CNC(=O)[C@H](CCC(N)=O)NC(=O)C(C)(C)NC(=O)[C@@H](N)Cc1c[nH]cn1)[C@@H](C)O)[C@@H](C)O)C(C)C)C(=O)N[C@@H](CCCCNC(=O)COCCOCCNC(=O)COCCOCCNC(=O)CC[C@H](NC(=O)CC[C@H](NC(=O)CC[C@H](NC(=O)CCCCCCCCCCCCCCCCC(=O)O)C(=O)O)C(=O)O)C(=O)O)C(=O)N[C@H](C(N)=O)[C@@H](C)O
notes: also called Chem. 9; Chem 9

Tests used:
human glucagon receptor [1] = target: T1, human glucagon receptor (human, UniProt P47871 26-477); experiment: cell-based or functional assay
T1 sequence (P47871 26-477): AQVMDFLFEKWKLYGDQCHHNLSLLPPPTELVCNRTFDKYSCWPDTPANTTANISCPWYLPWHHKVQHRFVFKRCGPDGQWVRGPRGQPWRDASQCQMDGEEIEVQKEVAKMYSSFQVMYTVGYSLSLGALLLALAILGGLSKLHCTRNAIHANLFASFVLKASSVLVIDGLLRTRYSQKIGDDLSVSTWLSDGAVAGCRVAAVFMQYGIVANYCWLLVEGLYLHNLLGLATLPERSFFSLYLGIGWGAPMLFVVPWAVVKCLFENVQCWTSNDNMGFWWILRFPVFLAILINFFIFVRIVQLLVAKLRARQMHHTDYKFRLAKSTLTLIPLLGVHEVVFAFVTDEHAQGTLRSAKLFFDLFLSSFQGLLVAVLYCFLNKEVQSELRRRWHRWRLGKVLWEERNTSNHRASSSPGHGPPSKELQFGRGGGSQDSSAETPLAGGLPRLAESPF

human GLP-1 receptor [2] = target: T2, human GLP-1 receptor (human, UniProt P43220 24-463); experiment: cell-based or functional assay
human glucagon receptor [3] = target: T1, human glucagon receptor; experiment: displacement of [125I]-glucagon from BHK membranes with human glucagon receptor, SPA, no serum albumin
human GLP-1 receptor [4] = target: T2, human GLP-1 receptor; experiment: displacement of [125I]-GLP-1-(7-36)NH2 from BHK membranes with human GLP-1R, SPA, no serum albumin

Binder | GlucagonR EC50 (pM), [Assay (I)(b)], CRE luciferase reporter, BHK cells (human glucagon receptor [1]) | GLP-1R EC50 (pM) [Assay (I)(a)], CRE luciferase reporter, BHK cells (human GLP-1 receptor [2]) | IC50 (human glucagon receptor [3]) | IC50 (human GLP-1 receptor [4])
B1 | 748 pM | 3 pM | 42.4 nM | 0.1 nM
B2 | 245 pM | 2 pM | 31.6 nM | 0.1 nM
B3 | 14 pM | 5 pM | 3.7 nM | 0.1 nM
B4 | 32 pM | 2 pM | 6 nM | 0.3 nM
B5 | 517 pM | 7 pM | 27.6 nM | 0.1 nM
B6 | 44 pM | 10 pM | 17.3 nM | 0.5 nM
